The text below walks through data of paper PMC11505469.

For test [1], the target named is Human FcRn. Nature of the test: SPR.
Test [2] addresses CD3εδ. The test is described as follows: SPR.

For the substance ISB 2001 (from UniProt P01857), the results for the dissociation constant (Kd) in test [1] and in test [2] were 240 nM and 41 nM, respectively.
